Reference: the supplement of paper PMC10065799, “High-throughput profiling of sequence recognition by tyrosine kinases and SH2 domains using bacterial peptide display” (eLife, 2023)

Columns and labels:
AncSZ = experiment: phosphorylation enrichment, bacterial display (enrichment ratio); higher = better substrate or ligand; peptides without Tyr show the background
EPHB1 = EPHB1 (UniProt P54762); experiment: as above
EPHB2 = EPHB2 (UniProt P29323); experiment: as above
FGFR1 = FGFR1 (UniProt P11362); experiment: as above
FGFR3 = FGFR3 (UniProt P22607); experiment: as above
FGFR3, sequence (P22607 whole entry, looked up): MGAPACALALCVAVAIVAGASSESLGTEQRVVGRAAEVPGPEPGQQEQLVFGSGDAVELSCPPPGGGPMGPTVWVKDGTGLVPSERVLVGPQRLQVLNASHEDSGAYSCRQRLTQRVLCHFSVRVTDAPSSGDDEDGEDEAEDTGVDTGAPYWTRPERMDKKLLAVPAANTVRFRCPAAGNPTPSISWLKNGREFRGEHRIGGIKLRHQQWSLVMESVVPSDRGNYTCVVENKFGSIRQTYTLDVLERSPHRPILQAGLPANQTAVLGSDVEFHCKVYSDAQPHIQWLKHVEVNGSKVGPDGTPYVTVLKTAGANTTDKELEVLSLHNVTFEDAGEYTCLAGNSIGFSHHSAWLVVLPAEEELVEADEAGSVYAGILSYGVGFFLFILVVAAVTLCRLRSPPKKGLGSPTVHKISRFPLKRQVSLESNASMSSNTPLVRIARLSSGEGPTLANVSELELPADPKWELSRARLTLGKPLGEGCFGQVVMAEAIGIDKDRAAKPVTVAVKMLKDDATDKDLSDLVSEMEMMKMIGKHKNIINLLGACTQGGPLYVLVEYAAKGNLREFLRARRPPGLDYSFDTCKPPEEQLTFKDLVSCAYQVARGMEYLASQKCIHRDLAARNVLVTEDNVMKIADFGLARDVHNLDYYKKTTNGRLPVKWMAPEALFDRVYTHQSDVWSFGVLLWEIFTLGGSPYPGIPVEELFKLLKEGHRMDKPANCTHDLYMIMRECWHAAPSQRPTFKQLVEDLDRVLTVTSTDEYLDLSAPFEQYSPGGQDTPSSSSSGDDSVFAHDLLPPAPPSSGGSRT

Fer (mouse) = experiment: as above
Fes = Fes (UniProt P07332); experiment: as above
Fes, sequence (P07332 whole entry, looked up): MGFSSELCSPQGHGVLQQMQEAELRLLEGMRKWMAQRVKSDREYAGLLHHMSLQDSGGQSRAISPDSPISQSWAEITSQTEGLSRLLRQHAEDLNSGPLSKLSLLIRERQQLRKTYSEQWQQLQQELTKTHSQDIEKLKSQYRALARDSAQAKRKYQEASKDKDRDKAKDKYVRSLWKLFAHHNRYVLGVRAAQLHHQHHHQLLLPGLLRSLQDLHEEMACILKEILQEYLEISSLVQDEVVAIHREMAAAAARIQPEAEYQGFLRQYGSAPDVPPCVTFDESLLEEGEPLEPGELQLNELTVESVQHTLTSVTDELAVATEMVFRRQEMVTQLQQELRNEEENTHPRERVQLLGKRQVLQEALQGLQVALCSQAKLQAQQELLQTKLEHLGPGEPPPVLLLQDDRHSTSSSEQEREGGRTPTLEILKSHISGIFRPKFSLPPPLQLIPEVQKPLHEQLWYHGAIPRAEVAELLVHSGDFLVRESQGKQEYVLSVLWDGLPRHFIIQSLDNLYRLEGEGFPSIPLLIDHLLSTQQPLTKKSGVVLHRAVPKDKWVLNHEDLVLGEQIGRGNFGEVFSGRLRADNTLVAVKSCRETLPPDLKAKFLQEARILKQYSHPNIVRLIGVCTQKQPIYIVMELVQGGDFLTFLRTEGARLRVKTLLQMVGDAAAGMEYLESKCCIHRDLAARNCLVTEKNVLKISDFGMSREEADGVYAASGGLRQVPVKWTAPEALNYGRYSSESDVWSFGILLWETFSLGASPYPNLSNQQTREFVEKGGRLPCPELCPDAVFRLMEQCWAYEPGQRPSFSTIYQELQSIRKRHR

Fyn = Fyn (UniProt P06241); experiment: as above
Hck = Hck (UniProt P08631); experiment: as above
Jak2 = Jak2 (UniProt O60674); experiment: as above
Jak2, sequence (O60674 whole entry, looked up): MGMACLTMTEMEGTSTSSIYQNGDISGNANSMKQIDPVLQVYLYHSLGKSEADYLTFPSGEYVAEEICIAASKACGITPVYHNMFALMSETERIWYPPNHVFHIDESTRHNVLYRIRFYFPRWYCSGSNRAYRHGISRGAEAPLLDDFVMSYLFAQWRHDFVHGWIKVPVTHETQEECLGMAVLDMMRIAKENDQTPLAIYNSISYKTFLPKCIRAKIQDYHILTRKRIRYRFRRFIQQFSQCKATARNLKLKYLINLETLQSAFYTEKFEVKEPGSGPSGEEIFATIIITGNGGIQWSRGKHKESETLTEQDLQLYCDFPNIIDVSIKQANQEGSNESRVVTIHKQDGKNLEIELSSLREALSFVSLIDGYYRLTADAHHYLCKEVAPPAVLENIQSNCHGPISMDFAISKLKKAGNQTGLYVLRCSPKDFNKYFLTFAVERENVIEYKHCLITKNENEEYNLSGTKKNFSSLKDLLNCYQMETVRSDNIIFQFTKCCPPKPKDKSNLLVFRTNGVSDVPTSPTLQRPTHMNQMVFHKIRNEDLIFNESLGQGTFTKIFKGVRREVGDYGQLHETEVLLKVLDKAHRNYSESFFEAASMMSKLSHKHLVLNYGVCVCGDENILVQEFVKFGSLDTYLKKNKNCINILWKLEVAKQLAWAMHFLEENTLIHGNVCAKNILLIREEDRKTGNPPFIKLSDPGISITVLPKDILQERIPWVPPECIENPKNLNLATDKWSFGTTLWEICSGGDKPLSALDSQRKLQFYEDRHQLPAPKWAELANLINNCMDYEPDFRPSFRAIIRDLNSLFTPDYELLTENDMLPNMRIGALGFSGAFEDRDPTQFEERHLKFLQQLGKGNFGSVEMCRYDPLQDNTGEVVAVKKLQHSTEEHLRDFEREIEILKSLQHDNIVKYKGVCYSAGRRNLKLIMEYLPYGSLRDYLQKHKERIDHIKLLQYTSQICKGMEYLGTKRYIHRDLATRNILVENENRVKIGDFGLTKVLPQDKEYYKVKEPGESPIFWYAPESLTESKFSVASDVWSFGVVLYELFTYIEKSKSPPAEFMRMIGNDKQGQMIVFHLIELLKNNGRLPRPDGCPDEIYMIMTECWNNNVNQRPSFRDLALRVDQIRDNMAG

MERTK = MERTK (UniProt Q12866); experiment: as above
MERTK, sequence (Q12866 whole entry, looked up): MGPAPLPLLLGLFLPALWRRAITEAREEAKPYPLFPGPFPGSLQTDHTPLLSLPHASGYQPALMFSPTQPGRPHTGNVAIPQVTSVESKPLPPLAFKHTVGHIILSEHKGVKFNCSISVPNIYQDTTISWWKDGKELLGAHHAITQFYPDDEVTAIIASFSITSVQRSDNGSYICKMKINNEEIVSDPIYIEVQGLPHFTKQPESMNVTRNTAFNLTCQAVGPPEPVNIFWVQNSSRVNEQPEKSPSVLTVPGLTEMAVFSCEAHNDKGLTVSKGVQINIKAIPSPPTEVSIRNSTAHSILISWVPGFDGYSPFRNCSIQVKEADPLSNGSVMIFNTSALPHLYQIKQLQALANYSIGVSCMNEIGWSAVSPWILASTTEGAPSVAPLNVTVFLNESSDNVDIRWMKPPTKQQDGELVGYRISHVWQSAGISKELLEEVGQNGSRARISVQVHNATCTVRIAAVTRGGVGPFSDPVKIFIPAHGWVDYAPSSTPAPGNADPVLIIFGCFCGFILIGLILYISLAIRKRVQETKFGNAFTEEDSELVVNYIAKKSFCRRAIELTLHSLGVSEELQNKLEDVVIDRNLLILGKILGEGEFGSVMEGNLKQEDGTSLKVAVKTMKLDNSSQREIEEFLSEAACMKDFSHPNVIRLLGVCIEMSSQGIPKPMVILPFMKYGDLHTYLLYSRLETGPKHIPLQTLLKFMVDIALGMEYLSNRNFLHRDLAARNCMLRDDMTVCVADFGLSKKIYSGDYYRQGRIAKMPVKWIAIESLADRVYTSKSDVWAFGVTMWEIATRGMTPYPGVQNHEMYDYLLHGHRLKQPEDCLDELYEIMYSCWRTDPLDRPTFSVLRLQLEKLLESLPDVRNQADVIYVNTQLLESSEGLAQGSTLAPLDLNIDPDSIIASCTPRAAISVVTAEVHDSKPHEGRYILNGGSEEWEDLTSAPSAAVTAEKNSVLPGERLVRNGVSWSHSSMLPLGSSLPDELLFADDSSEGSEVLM

c-Abl (mouse) = experiment: as above
c-Src = experiment: as above
Grb2 SH2 = Grb2 SH2 (UniProt P62993); experiment: SH2 binding enrichment of the phosphorylated peptide, bacterial display (enrichment ratio); higher = better substrate or ligand; peptides without Tyr show the background
Grb2 SH2, sequence (P62993 whole entry, looked up): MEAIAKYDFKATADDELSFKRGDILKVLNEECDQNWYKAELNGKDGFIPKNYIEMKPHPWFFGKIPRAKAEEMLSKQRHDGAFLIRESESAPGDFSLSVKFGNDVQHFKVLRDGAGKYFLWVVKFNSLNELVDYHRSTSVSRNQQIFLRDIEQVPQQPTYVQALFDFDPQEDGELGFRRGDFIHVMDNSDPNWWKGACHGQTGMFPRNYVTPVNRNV

SHP2-C SH2 = experiment: as above
c-Src SH2 = experiment: as above
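Wherever SH2 binding enrichment of the phosphorylated peptide, bacterial display is given: peptide library displayed on the E. coli surface as eCPX fusions, selected cells deep-sequenced, score is each peptide's frequency after selection divided by its frequency in the input.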
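Wherever phosphorylation enrichment, bacterial display is given: 11-residue human phosphosite peptides and single-mutation variants displayed on the E. coli surface, counted by deep sequencing, each peptide's frequency after selection divided by its frequency in the unselected input library; frequency after pTyr selection over input frequency; kinase dosed for 20-30% of maximal phosphorylation in three min.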

EPHB1, sequence (P54762 whole entry, looked up): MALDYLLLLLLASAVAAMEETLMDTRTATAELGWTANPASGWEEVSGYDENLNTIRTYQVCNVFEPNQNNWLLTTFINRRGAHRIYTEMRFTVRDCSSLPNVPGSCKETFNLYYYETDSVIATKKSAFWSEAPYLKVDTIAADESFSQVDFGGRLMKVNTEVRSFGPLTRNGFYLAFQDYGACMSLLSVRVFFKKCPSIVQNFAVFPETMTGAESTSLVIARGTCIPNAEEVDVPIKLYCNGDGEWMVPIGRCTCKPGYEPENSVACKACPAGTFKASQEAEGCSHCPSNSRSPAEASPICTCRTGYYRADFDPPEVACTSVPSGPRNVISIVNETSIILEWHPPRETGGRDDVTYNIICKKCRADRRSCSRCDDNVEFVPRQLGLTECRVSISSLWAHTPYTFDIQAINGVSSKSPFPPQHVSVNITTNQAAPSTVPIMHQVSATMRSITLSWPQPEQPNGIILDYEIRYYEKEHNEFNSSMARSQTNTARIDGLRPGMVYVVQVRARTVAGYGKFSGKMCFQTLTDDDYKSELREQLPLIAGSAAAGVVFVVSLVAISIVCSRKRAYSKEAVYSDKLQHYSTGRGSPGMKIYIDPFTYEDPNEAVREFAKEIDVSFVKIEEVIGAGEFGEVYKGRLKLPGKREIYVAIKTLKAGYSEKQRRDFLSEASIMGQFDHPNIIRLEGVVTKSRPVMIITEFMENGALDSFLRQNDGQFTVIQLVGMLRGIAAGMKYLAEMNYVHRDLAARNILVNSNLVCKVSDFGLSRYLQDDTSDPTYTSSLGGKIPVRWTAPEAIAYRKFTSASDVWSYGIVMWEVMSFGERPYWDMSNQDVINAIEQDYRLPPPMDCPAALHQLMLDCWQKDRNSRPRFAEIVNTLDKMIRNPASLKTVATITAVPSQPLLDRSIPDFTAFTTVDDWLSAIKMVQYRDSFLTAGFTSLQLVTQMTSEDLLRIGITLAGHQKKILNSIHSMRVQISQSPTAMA

| Sequence | phosphorylation enrichment (AncSZ) | phosphorylation enrichment (EPHB1) | phosphorylation enrichment (EPHB2) | phosphorylation enrichment (FGFR1) | phosphorylation enrichment (FGFR3) | phosphorylation enrichment (Fer (mouse)) | phosphorylation enrichment (Fes) | phosphorylation enrichment (Fyn) | phosphorylation enrichment (Hck) | phosphorylation enrichment (Jak2) | phosphorylation enrichment (MERTK) | phosphorylation enrichment (c-Abl (mouse)) | phosphorylation enrichment (c-Src) | SH2 binding enrichment (Grb2 SH2) | SH2 binding enrichment (SHP2-C SH2) | SH2 binding enrichment (c-Src SH2) |
| --- | --- | --- | --- | --- | --- | --- | --- | --- | --- | --- | --- | --- | --- | --- | --- | --- |
| LRTAVYHEILI [CREBBP_Y1450] | 3.59 | 1.97 | 1.85 | 16.7 | 12.1 | 14.4 | 3.73 | 7.22 | 7.29 | 3.67 | 7.48 | 2.77 | 12.5 | 0.86 | 0.858 | 3.56 |
| LSALDYKIFYY [WDPCP_Y210] | 1.18 | 0.634 | 0.602 | 0.816 | 0.928 | 0.404 | 1.18 | 0.511 | 0.499 | 1.29 | 0.365 | 0.787 | 0.495 | 1.03 | 0.868 | 0.956 |
| LSEEKYELKEG [TREM1_Y29_T25S] | 1.54 | 0.712 | 0.628 | 0.592 | 0.835 | 0.627 | 1.4 | 0.574 | 0.513 | 1.18 | 0.449 | 0.875 | 0.489 | 0.713 | 0.603 | 0.391 |
| LSNPAYCLLLA [DDR1_Y513_R514C] | 1.5 | 1.05 | 0.844 | 6.78 | 4.44 | 0.973 | 1.63 | 0.605 | 0.855 | 1.49 | 5.79 | 0.912 | 0.699 | 0.683 | 0.819 | 0.591 |
| LSQAKYQIRFR [CRLF1_Y272_F268S_YF] | 0.933 | 0.682 | 0.286 | 0.558 | 0.596 | 0.499 | 0.672 | 0.621 | 0.431 | 0.63 | 0.499 | 0.597 | 0.421 | 1.12 | 0.78 | 0.645 |
| LSQDVYEEDSF [RET_Y900_R897Q_YF] | 2.12 | 1.19 | 0.962 | 0.991 | 1.44 | 0.978 | 2.43 | 0.882 | 0.945 | 2.56 | 1.26 | 1.58 | 0.852 | 0.83 | 0.687 | 0.671 |
| LSSEMYVKSYT [F5_Y2149] | 1.46 | 1.14 | 2.05 | 1.27 | 1.12 | 0.771 | 1.56 | 1.2 | 0.991 | 1.12 | 0.76 | 0.733 | 0.73 | 0.89 | 0.609 | 0.479 |
| LSSETYVKSYT [F5_Y2149_M2148T] | 0.946 | 0.553 | 0.74 | 0.606 | 0.582 | 0.738 | 0.902 | 0.726 | 0.529 | 1.37 | 0.513 | 0.908 | 0.668 | 0.936 | 0.818 | 0.555 |
| LSVISYDLGMF [GBA3_Y174_M172I] | 1.2 | 0.742 | 0.72 | 0.328 | 0.581 | 0.415 | 1.27 | 0.436 | 0.481 | 1.21 | 0.424 | 0.961 | 0.586 | 1.12 | 1.12 | 0.888 |
| LTMAPYSSVSL [FAM81A_Y24] | 0.628 | 0.412 | 0.45 | 0.498 | 0.488 | 6.06 | 0.618 | 0.536 | 0.495 | 0.518 | 0.556 | 0.511 | 0.897 | 0.691 | 1.82 | 2.72 |
| LTTPTFGDLNH [TUBB_Y222_Y222F] | 0.729 | 0.407 | 0.384 | 0.554 | 0.577 | 1.05 | 0.871 | 0.378 | 0.308 | 0.609 | 0.442 | 0.612 | 0.577 | 0.604 | 0.551 | 0.822 |
| LTTPTYGDLNH [TUBB_Y222] | 1.41 | 1.14 | 1.44 | 1.03 | 1.11 | 1.07 | 1.47 | 5.58 | 4.7 | 0.84 | 0.836 | 0.702 | 3.12 | 1.02 | 0.748 | 0.662 |
| LVTAWYIGFLC [KCNQ2_Y237] | 2.1 | 1.12 | 0.95 | 0.872 | 1.3 | 0.873 | 2.62 | 0.748 | 1.11 | 2.67 | 0.629 | 2.12 | 1.15 | 1.16 | 0.712 | 0.622 |
| LYEDRYLLGTS [ASS1_Y87] | 0.982 | 3.01 | 1.23 | 0.702 | 0.95 | 4.27 | 0.981 | 1.79 | 3.73 | 0.894 | 0.786 | 0.79 | 0.837 | 0.82 | 1.05 | 0.546 |
| LYRYGYANTSE [SI_Y1233_C1229Y] | 0.806 | 0.437 | 0.39 | 0.46 | 0.507 | 0.32 | 0.775 | 0.383 | 0.395 | 0.6 | 0.36 | 0.511 | 0.351 | 2.63 | 1.31 | 2.44 |
| MANFVYKAGPS [MAML2_Y515_M514V_YF] | 0.681 | 0.436 | 0.553 | 0.517 | 0.469 | 0.39 | 0.65 | 0.423 | 0.499 | 0.477 | 0.371 | 0.417 | 0.365 | 1.01 | 0.825 | 0.66 |
| MAQDIYRASYY [ALK_Y1278_R1275Q] | 0.662 | 0.576 | 0.53 | 0.786 | 0.653 | 0.451 | 0.765 | 1.62 | 2.54 | 0.61 | 0.791 | 7.45 | 3.15 | 0.882 | 0.73 | 0.755 |

| Sequence | phosphorylation enrichment (AncSZ) | phosphorylation enrichment (EPHB1) | phosphorylation enrichment (EPHB2) | phosphorylation enrichment (FGFR1) | phosphorylation enrichment (FGFR3) | phosphorylation enrichment (Fer (mouse)) | phosphorylation enrichment (Fes) | phosphorylation enrichment (Fyn) | phosphorylation enrichment (Hck) | phosphorylation enrichment (Jak2) | phosphorylation enrichment (MERTK) | phosphorylation enrichment (c-Abl (mouse)) | phosphorylation enrichment (c-Src) | SH2 binding enrichment (Grb2 SH2) | SH2 binding enrichment (SHP2-C SH2) | SH2 binding enrichment (c-Src SH2) |
| --- | --- | --- | --- | --- | --- | --- | --- | --- | --- | --- | --- | --- | --- | --- | --- | --- |
| MASISYDYCRV [BST2_Y6_T4I] | 1.58 | 4.17 | 3.29 | 1.32 | 1.1 | 2.33 | 0.908 | 0.565 | 1.02 | 1.09 | 0.75 | 0.708 | 0.589 | 1.1 | 0.77 | 1.22 |
| MDDPRYGVCPL [ZNF100_Y6_M8V] | 1.15 | 0.673 | 0.632 | 0.491 | 0.75 | 0.56 | 1.27 | 0.609 | 0.715 | 1.46 | 0.579 | 0.918 | 0.527 | 0.767 | 0.616 | 0.613 |
| MEFLPYGSLRD [JAK2_Y934_YF] | 0.857 | 0.571 | 0.451 | 0.441 | 0.615 | 0.832 | 1.56 | 1.64 | 2.29 | 0.798 | 0.388 | 0.692 | 2.6 | 0.798 | 0.574 | 0.573 |
| MEIHAYRKLLE [LMNA_Y376] | 0.804 | 0.479 | 0.67 | 0.443 | 0.57 | 0.527 | 0.97 | 0.429 | 0.414 | 0.814 | 0.383 | 0.672 | 0.397 | 0.869 | 0.572 | 0.471 |
| MEKEKYVSFIS [JMJD1C_Y596_YF] | 0.833 | 0.416 | 0.417 | 0.434 | 0.55 | 0.35 | 0.832 | 0.348 | 0.497 | 0.518 | 0.454 | 0.541 | 0.486 | 0.711 | 0.831 | 0.785 |
| MEKEKYVSYIS [JMJD1C_Y596] | 0.795 | 0.571 | 0.509 | 0.401 | 0.672 | 0.397 | 1.11 | 0.471 | 0.442 | 0.921 | 0.413 | 0.629 | 0.5 | 0.612 | 0.815 | 0.432 |
| MGRVNYGAFIN [GLB1_Y485_YF] | 0.567 | 0.399 | 0.498 | 0.398 | 0.496 | 0.382 | 0.707 | 0.408 | 0.422 | 0.616 | 0.426 | 0.472 | 0.562 | 0.903 | 0.969 | 0.585 |
| MHLRQYKLLGG [GNAS_Y391_E392K] | 0.51 | 0.534 | 0.44 | 0.478 | 0.535 | 0.399 | 0.764 | 0.443 | 0.522 | 0.548 | 0.412 | 0.478 | 0.419 | 0.715 | 0.453 | 0.483 |
| MKALGYFAVVK [OPA1_Y498_T503K] | 1.05 | 0.507 | 0.569 | 0.51 | 0.692 | 0.596 | 1.25 | 0.464 | 0.48 | 1 | 0.439 | 0.767 | 0.397 | 0.792 | 0.913 | 0.595 |
| MKDLTYASLCF [ALOX5_Y446] | 1.09 | 2.65 | 2.07 | 0.901 | 0.946 | 1.71 | 1.33 | 6.75 | 5.35 | 1.01 | 3.15 | 1.78 | 5.59 | 0.912 | 0.737 | 0.411 |
| MMVGAYSTLEG [ECPAS_Y470] | 0.765 | 0.735 | 0.545 | 0.538 | 0.676 | 0.743 | 0.839 | 0.607 | 1.07 | 0.557 | 3.09 | 0.57 | 0.704 | 0.777 | 1.44 | 11.7 |
| MSLPGYKLVTG [GJA1_Y286_P283L] | 0.536 | 0.374 | 0.393 | 0.495 | 0.456 | 0.518 | 0.585 | 0.378 | 0.345 | 0.497 | 0.364 | 0.348 | 0.353 | 0.766 | 0.682 | 0.489 |
| MSNSAYVKREV [SCN1A_Y1694_F1692S] | 0.563 | 0.407 | 0.415 | 0.45 | 0.46 | 0.37 | 0.562 | 0.402 | 0.399 | 0.437 | 0.381 | 0.442 | 0.335 | 0.838 | 0.753 | 0.454 |
| MSSAGYRAAEG [COL6A3_Y543_T538M] | 0.468 | 0.389 | 0.334 | 0.425 | 0.444 | 0.379 | 0.495 | 0.387 | 0.375 | 0.529 | 0.372 | 0.497 | 0.404 | 0.788 | 0.609 | 0.396 |
| MSSLYYANALF [HOXB7_Y6_T9A] | 1.04 | 7.33 | 8.29 | 5.32 | 4.83 | 5.14 | 1.04 | 4.93 | 6.04 | 2.94 | 10.7 | 3.44 | 4.88 | 4.61 | 1.36 | 2.08 |
| MTFMFYRENLR [NLRP14_Y443_V441M_YF] | 1.45 | 0.691 | 0.724 | 0.545 | 0.784 | 0.705 | 1.28 | 0.537 | 0.518 | 1.32 | 0.526 | 0.879 | 0.445 | 0.909 | 1.22 | 0.567 |
